B1: Recombinant full-length histidine-tagged human JMJD2a (protein)
chain: MASESETLNPSARIMTFYPTMEEFRNFSRYIAYIESQGAHRAGLAKVVPPKEWKPRASYDDIDDLVIPAPIQQLVTGQSGLFTQYNIQKKAMTVREFRKIANSDKYCTPRYSEFEELERKYWKNLTFNPPIYGADVNGTLYEKHVDEWNIGRLRTILDLVEKESGITIEGVNTPYLYFGMWKTSFAWHTEDMDLYSINYLHFGEPKSWYSVPPEHGKRLERLAKGFFPGSAQSCEAFLRHKMTLISPLMLKKYGIPFDKVTQEAGEFMITFPYGYHAGFNHGFNCAESTNFATRRWIEYGKQAVLCSCRKDMVKISMDVFVRKFQPERYKLWKAGKDNTVIDHTLPTPEAAEFLKESELPPRAGNEEECPEEDMEGVEDGEEGDLKTSLAKHRIGTKRHRVCLEIPQEVSQSELFPKEDLSSEQYEMTECPAALAPVRPTHSSVRQVEDGLTFPDYSDSTEVKFEELKNVKLEEEDEEEEQEAAALDLSVNPASVGGRLVFSGSKKKSSSSLGSGSSRDSISSDSETSEPLSCRAQGQTGVLTVHSYAKGDGRVTVGEPCTRKKGSAARSFSERELAEVADEYMFSLEENKKSKGRRQPLSKLPRHHPLVLQECVSDDETSEQLTPEEEAEETEAWAKPLSQLWQNRPPNFEAEKEFNETMAQQAPHCAVCMIFQTYHQVEFGGFNQNCGNASDLAPQKQRTKPLIPEMCFTSTGCSTDINLSTPYLEEDGTSILVSCKKCSVRVHASCYGVPPAKASEDWMCSRCSANALEEDCCLCSLRGGALQRANDDRWVHVSCAVAILEARFVNIAERSPVDVSKIPLPRFKLKCIFCKKRRKRTAGCCVQCSHGRCPTAFHVSCAQAAGVMMQPDDWPFVVFITCFRHKIPNLERAKGALQSITAGQKVISKHKNGRFYQCEVVRLTTETFYEVNFDDGSFSDNLYPEDIVSQDCLQFGPPAEGEVVQVRWTDGQVYGAKFVASHPIQMYQVEFEDGSQLVVKRDDVYTLDEELPKRVKSRLSVASDMRFNEIFTEKEVKQEKKRQRVINSRYREDYIEPALYRAIME
B2: Recombinant full-length amino-terminally hexahistidine-tagged human GASC1 (protein)
chain: MEVAEVESPLNPSCKIMTFRPSMEEFREFNKYLAYMESKGAHRAGLAKVIPPKEWKPRQCYDDIDNLLIPAPIQQMVTGQSGLFTQYNIQKKAMTVKEFRQLANSGKYCTPRYLDYEDLERKYWKNLTFVAPIYGADINGSIYDEGVDEWNIARINTVLDVVEEECGISIEGVNTPYLYFGMWKTTFAWHTEDMDLYSINYLHFGEPKSWYAIPPEHGKRLERLAQGFFPSSSQGCDAFLRHKMTLISPSVLKKYGIPFDKITQEAGEFMITFPYGYHAGFNHGFNCAESTNFATVRWIDYGKVAKLCTCRKDMVKISMDIFVRKFQPDRYQLWKQGKDIYTIDHTKPTPASTPEVKAWLQRRRKVRKASRSFQCARSTSKRPKADEEEEVSDEVDGAEVPNPDSVTDDLKVSEKSEAAVKLRNTEASSEEESSASRMQVEQNLSDHIKLSGNSCLSTSVTEDIKTEDDKAYAYRSVPSISSEADDSIPLSTGYEKPEKSDPSELSWPKSPESCSSVAESNGVLTEGEESDVESHGNGLEPGEIPAVPSGERNSFKVPSIAEGENKTSKSWRHPLSRPPARSPMTLVKQQAPSDEELPEVLSIEEEVEETESWAKPLIHLWQTKSPNFAAEQEYNATVARMKPHCAICTLLMPYHKPDSSNEENDARWETKLDEVVTSEGKTKPLIPEMCFIYSEENIEYSPPNAFLEEDGTSLLISCAKCCVRVHASCYGIPSHEICDGWLCARCKRNAWTAECCLCNLRGGALKQTKNNRWAHVMCAVAVPEVRFTNVPERTQIDVGRIPLQRLKLKCIFCRHRVKRVSGACIQCSYGRCPASFHVTCAHAAGVLMEPDDWPYVVNITCFRHKVNPNVKSKACEKVISVGQTVITKHRNTRYYSCRVMAVTSQTFYEVMFDDGSFSRDTFPEDIVSRDCLKLGPPAEGEVVQVKWPDGKLYGAKYFGSNIAHMYQVEFEDGSQIAMKREDIYTLDEELPKRVKARFSTASDMRFEDTFYGADIIQGERKRQRVLSSRFKNEYVADPVYRTFLKSSFQKKCQKRQ

What was measured:
[1] = target: Synthetic 43-mer histone H3 (1-40) peptide tri-methylated at lysine 9, …(me3)…-Tyr-Cys-(Ttds)-Lys-biotin
[2] = target: Synthetic 43-mer histone H3 (1-40) peptide tri-methylated at lysine 27, …-Tyr-Cys-(Ttds)-Lys-biotin
Chain of Synthetic 43-mer histone H3 (1-40) peptide tri-methylated at lysine 27, …-Tyr-Cys-(Ttds)-Lys-biotin (chain, as listed by the source): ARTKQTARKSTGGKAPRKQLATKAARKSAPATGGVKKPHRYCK

Chain of Synthetic 43-mer histone H3 (1-40) peptide tri-methylated at lysine 9, …(me3)…-Tyr-Cys-(Ttds)-Lys-biotin (chain, as listed by the source): as above

Protein	demethylation of synthetic H3K9 peptides, western blotting [1]	demethylation of H3K9me3 peptide, mass spectrometry [1]	formaldehyde release (demethylation-FDH-coupled assay) [1]	in vitro demethylation of synthetic peptide, western blotting [1]	demethylation assay, immunoblotting of the methylation mark [2]
B1	GASC1 and its homolog JMJD2A appeared to have a comparable ability to demethylate synthetic H3K9 substrates				
B2		the majority of H3K9me3 peptide (approximately 80%) was converted to di- and mono-methylated H3-K9 after incubation of with GASC1	recombinant His-tagged GASC1 released formaldehyde	Following 30 minutes incubation of pure tri-methylated H3K9 with GASC1 almost all tri-methyl H3K9 was converted to di- and mono-methyl H3K9	tri-methylated H3K27 and tri-methylated H4K20 appeared to be unaffected by GASC1 treatment

From patent US20090162945
